# T1: FcγRIIb (human, UniProt P31994 43-217)
# T1 construct: extracellular domain; also called FcgRIIb; CD32B
# T1 sequence (looked up): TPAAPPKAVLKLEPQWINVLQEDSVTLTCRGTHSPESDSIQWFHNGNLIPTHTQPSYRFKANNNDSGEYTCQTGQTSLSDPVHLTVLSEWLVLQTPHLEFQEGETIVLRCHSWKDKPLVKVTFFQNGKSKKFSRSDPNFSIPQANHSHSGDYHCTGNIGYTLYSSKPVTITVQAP
# Assays:
# FcγRIa [1] = target: T2, FcγRIa (human, UniProt P12314 16-292); test: ratio of He/Con_1a to He/Con_2b (FcγRIa over FcγRIIb), SPR
# T2 construct: extracellular domain; also called FcgRI; CD64
# T2 sequence (P12314 16-292): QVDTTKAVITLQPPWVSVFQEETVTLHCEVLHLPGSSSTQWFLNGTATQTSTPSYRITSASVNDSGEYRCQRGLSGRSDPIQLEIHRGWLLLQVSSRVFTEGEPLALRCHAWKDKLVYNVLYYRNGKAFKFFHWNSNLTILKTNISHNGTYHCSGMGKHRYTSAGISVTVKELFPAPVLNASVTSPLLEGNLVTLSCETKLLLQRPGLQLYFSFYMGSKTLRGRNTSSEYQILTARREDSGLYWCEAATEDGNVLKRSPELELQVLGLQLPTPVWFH
# Experimental: (§1) The heterodimerized antibodies He Abs in which one of the H chains was introduced with an alteration were assayed for their binding activities to each activating FcγR and inhibitory FcγR according to the method described in Example 4. […] The activating FcγRs in FIGS. 26, 27, 28, and 29 are FcγRIa, FcγRIIa (R), FcγRIIa (H), and FcγRIIIa, respectively.
# (§2) Analysis of interaction between objective antibody and the FcγR was carried out using Biacore T100 (GE Healthcare). HBS-EP+ (GE Healthcare) was used as the running buffer, and the measurement temperature was set to 25° C. Chips produced by immobilizing the antigen peptide by the amine coupling method to a Series S Sencor Chip CM5 (GE Healthcare), or alternatively, chips produced by allowing preliminarily biotinylated antigen peptides to interact with and immobilize onto a Series S Sensor Chip SA (certified) (GE Healthcare) were used. Antibodies of interest were captured onto an antigen peptide-immobilized chip, and allowed to interact to each FcγR diluted with running buffer. To regenerate and repeatedly use the chip, the antibodies captured on the chip were washed off by reacting 10 mM glycine-HCl, pH 1.5.
# FcγRIa [2] = target: T2, FcγRIa; test: SPR (Biacore), captured antibody, soluble FcγR; relative to GpH7-A5/GpH7-B3/GpL16-k0 = 100
# Experimental: as §1, §2
# FcγRIIb = target: T1, FcγRIIb; test: as above
# Experimental: as §1, §2
Binder,He_1a/2b (Ia/IIb) (FcγRIa [1]),He/Con_1a (FcγRIa [2]),He/Con_2b (FcγRIIb)
"GpH7-A5/GpH7-B3 variant A330_09D/GpL16-k0 (antibody, human IgG1, kappa, He Ab; mutation in the GpH7-B3 chain only; also called He Ab) heavy 1: not shown heavy 2: not shown light: DIVMTQSPLSLPVTPGEPASISCQASESLVHSNRNTYLHWYLQKPGQSPQLLIYKVSNRFSGVPDRFSGSGSGTDFTLKISRVEAEDVGVYYCSQNTHVPPTFGQGTKVEIERTVAAPSVFIFPPSDEQLKSGTASVVCLLNNFYPREAKVQWKVDNALQSGNSQESVTEQDSKDSTYSLSSTLTLSKADYEKHKVYACEVTHQGLSSPVTKSFNRGEC",1.95,109 % of control,55.6 % of control
"GpH7-A5/GpH7-B3 variant A330_10E/GpL16-k0 (antibody, human IgG1, kappa, He Ab; mutation in the GpH7-B3 chain only; also called He Ab) heavy 1: not shown heavy 2: not shown light: DIVMTQSPLSLPVTPGEPASISCQASESLVHSNRNTYLHWYLQKPGQSPQLLIYKVSNRFSGVPDRFSGSGSGTDFTLKISRVEAEDVGVYYCSQNTHVPPTFGQGTKVEIERTVAAPSVFIFPPSDEQLKSGTASVVCLLNNFYPREAKVQWKVDNALQSGNSQESVTEQDSKDSTYSLSSTLTLSKADYEKHKVYACEVTHQGLSSPVTKSFNRGEC",1.53,107 % of control,70.1 % of control
"GpH7-A5/GpH7-B3 variant A330_13S/GpL16-k0 (antibody, human IgG1, kappa, He Ab; mutation in the GpH7-B3 chain only; also called He Ab) heavy 1: not shown heavy 2: not shown light: DIVMTQSPLSLPVTPGEPASISCQASESLVHSNRNTYLHWYLQKPGQSPQLLIYKVSNRFSGVPDRFSGSGSGTDFTLKISRVEAEDVGVYYCSQNTHVPPTFGQGTKVEIERTVAAPSVFIFPPSDEQLKSGTASVVCLLNNFYPREAKVQWKVDNALQSGNSQESVTEQDSKDSTYSLSSTLTLSKADYEKHKVYACEVTHQGLSSPVTKSFNRGEC",2.22,91.5 % of control,41.3 % of control
"GpH7-A5/GpH7-B3 variant A330_14T/GpL16-k0 (antibody, human IgG1, kappa, He Ab; mutation in the GpH7-B3 chain only; also called He Ab) heavy 1: not shown heavy 2: not shown light: DIVMTQSPLSLPVTPGEPASISCQASESLVHSNRNTYLHWYLQKPGQSPQLLIYKVSNRFSGVPDRFSGSGSGTDFTLKISRVEAEDVGVYYCSQNTHVPPTFGQGTKVEIERTVAAPSVFIFPPSDEQLKSGTASVVCLLNNFYPREAKVQWKVDNALQSGNSQESVTEQDSKDSTYSLSSTLTLSKADYEKHKVYACEVTHQGLSSPVTKSFNRGEC",1.35,105 % of control,77.9 % of control
"GpH7-A5/GpH7-B3 variant A330_16H/GpL16-k0 (antibody, human IgG1, kappa, He Ab; mutation in the GpH7-B3 chain only; also called He Ab) heavy 1: not shown heavy 2: not shown light: DIVMTQSPLSLPVTPGEPASISCQASESLVHSNRNTYLHWYLQKPGQSPQLLIYKVSNRFSGVPDRFSGSGSGTDFTLKISRVEAEDVGVYYCSQNTHVPPTFGQGTKVEIERTVAAPSVFIFPPSDEQLKSGTASVVCLLNNFYPREAKVQWKVDNALQSGNSQESVTEQDSKDSTYSLSSTLTLSKADYEKHKVYACEVTHQGLSSPVTKSFNRGEC",1.21,106 % of control,87.6 % of control
"GpH7-A5/GpH7-B3 variant A330_18N/GpL16-k0 (antibody, human IgG1, kappa, He Ab; mutation in the GpH7-B3 chain only; also called He Ab) heavy 1: not shown heavy 2: not shown light: DIVMTQSPLSLPVTPGEPASISCQASESLVHSNRNTYLHWYLQKPGQSPQLLIYKVSNRFSGVPDRFSGSGSGTDFTLKISRVEAEDVGVYYCSQNTHVPPTFGQGTKVEIERTVAAPSVFIFPPSDEQLKSGTASVVCLLNNFYPREAKVQWKVDNALQSGNSQESVTEQDSKDSTYSLSSTLTLSKADYEKHKVYACEVTHQGLSSPVTKSFNRGEC",1.67,106 % of control,63.7 % of control
"GpH7-A5/GpH7-B3 variant A330_20W/GpL16-k0 (antibody, human IgG1, kappa, He Ab; mutation in the GpH7-B3 chain only; also called He Ab) heavy 1: not shown heavy 2: not shown light: DIVMTQSPLSLPVTPGEPASISCQASESLVHSNRNTYLHWYLQKPGQSPQLLIYKVSNRFSGVPDRFSGSGSGTDFTLKISRVEAEDVGVYYCSQNTHVPPTFGQGTKVEIERTVAAPSVFIFPPSDEQLKSGTASVVCLLNNFYPREAKVQWKVDNALQSGNSQESVTEQDSKDSTYSLSSTLTLSKADYEKHKVYACEVTHQGLSSPVTKSFNRGEC",1.41,108 % of control,76.1 % of control
"GpH7-A5/GpH7-B3 variant E333_01G/GpL16-k0 (antibody, human IgG1, kappa, He Ab; mutation in the GpH7-B3 chain only; also called He Ab) heavy 1: not shown heavy 2: not shown light: DIVMTQSPLSLPVTPGEPASISCQASESLVHSNRNTYLHWYLQKPGQSPQLLIYKVSNRFSGVPDRFSGSGSGTDFTLKISRVEAEDVGVYYCSQNTHVPPTFGQGTKVEIERTVAAPSVFIFPPSDEQLKSGTASVVCLLNNFYPREAKVQWKVDNALQSGNSQESVTEQDSKDSTYSLSSTLTLSKADYEKHKVYACEVTHQGLSSPVTKSFNRGEC",1.26,103 % of control,81.4 % of control
"GpH7-A5/GpH7-B3 variant E333_02A/GpL16-k0 (antibody, human IgG1, kappa, He Ab; mutation in the GpH7-B3 chain only; also called He Ab) heavy 1: not shown heavy 2: not shown light: DIVMTQSPLSLPVTPGEPASISCQASESLVHSNRNTYLHWYLQKPGQSPQLLIYKVSNRFSGVPDRFSGSGSGTDFTLKISRVEAEDVGVYYCSQNTHVPPTFGQGTKVEIERTVAAPSVFIFPPSDEQLKSGTASVVCLLNNFYPREAKVQWKVDNALQSGNSQESVTEQDSKDSTYSLSSTLTLSKADYEKHKVYACEVTHQGLSSPVTKSFNRGEC",1.23,103 % of control,83.8 % of control

# Other lines, results leading:
He_1a/2b (Ia/IIb) (FcγRIa [1]),He/Con_1a (FcγRIa [2]),He/Con_2b (FcγRIIb),Binder
1.27,102 % of control,80.6 % of control,"GpH7-A5/GpH7-B3 variant E333_11K/GpL16-k0 (antibody, human IgG1, kappa, He Ab; mutation in the GpH7-B3 chain only; also called He Ab) heavy 1: not shown heavy 2: not shown light: DIVMTQSPLSLPVTPGEPASISCQASESLVHSNRNTYLHWYLQKPGQSPQLLIYKVSNRFSGVPDRFSGSGSGTDFTLKISRVEAEDVGVYYCSQNTHVPPTFGQGTKVEIERTVAAPSVFIFPPSDEQLKSGTASVVCLLNNFYPREAKVQWKVDNALQSGNSQESVTEQDSKDSTYSLSSTLTLSKADYEKHKVYACEVTHQGLSSPVTKSFNRGEC"
1.27,102 % of control,80.4 % of control,"GpH7-A5/GpH7-B3 variant E333_12R/GpL16-k0 (antibody, human IgG1, kappa, He Ab; mutation in the GpH7-B3 chain only; also called He Ab) heavy 1: not shown heavy 2: not shown light: DIVMTQSPLSLPVTPGEPASISCQASESLVHSNRNTYLHWYLQKPGQSPQLLIYKVSNRFSGVPDRFSGSGSGTDFTLKISRVEAEDVGVYYCSQNTHVPPTFGQGTKVEIERTVAAPSVFIFPPSDEQLKSGTASVVCLLNNFYPREAKVQWKVDNALQSGNSQESVTEQDSKDSTYSLSSTLTLSKADYEKHKVYACEVTHQGLSSPVTKSFNRGEC"
1.26,103 % of control,81.8 % of control,"GpH7-A5/GpH7-B3 variant E333_13S/GpL16-k0 (antibody, human IgG1, kappa, He Ab; mutation in the GpH7-B3 chain only; also called He Ab) heavy 1: not shown heavy 2: not shown light: DIVMTQSPLSLPVTPGEPASISCQASESLVHSNRNTYLHWYLQKPGQSPQLLIYKVSNRFSGVPDRFSGSGSGTDFTLKISRVEAEDVGVYYCSQNTHVPPTFGQGTKVEIERTVAAPSVFIFPPSDEQLKSGTASVVCLLNNFYPREAKVQWKVDNALQSGNSQESVTEQDSKDSTYSLSSTLTLSKADYEKHKVYACEVTHQGLSSPVTKSFNRGEC"
1.21,101 % of control,83.3 % of control,"GpH7-A5/GpH7-B3 variant E333_16H/GpL16-k0 (antibody, human IgG1, kappa, He Ab; mutation in the GpH7-B3 chain only; also called He Ab) heavy 1: not shown heavy 2: not shown light: DIVMTQSPLSLPVTPGEPASISCQASESLVHSNRNTYLHWYLQKPGQSPQLLIYKVSNRFSGVPDRFSGSGSGTDFTLKISRVEAEDVGVYYCSQNTHVPPTFGQGTKVEIERTVAAPSVFIFPPSDEQLKSGTASVVCLLNNFYPREAKVQWKVDNALQSGNSQESVTEQDSKDSTYSLSSTLTLSKADYEKHKVYACEVTHQGLSSPVTKSFNRGEC"
1.27,96.6 % of control,76.1 % of control,"GpH7-A5/GpH7-B3 variant E333_18N/GpL16-k0 (antibody, human IgG1, kappa, He Ab; mutation in the GpH7-B3 chain only; also called He Ab) heavy 1: not shown heavy 2: not shown light: DIVMTQSPLSLPVTPGEPASISCQASESLVHSNRNTYLHWYLQKPGQSPQLLIYKVSNRFSGVPDRFSGSGSGTDFTLKISRVEAEDVGVYYCSQNTHVPPTFGQGTKVEIERTVAAPSVFIFPPSDEQLKSGTASVVCLLNNFYPREAKVQWKVDNALQSGNSQESVTEQDSKDSTYSLSSTLTLSKADYEKHKVYACEVTHQGLSSPVTKSFNRGEC"
2.05,100 % of control,48.9 % of control,"GpH7-A5/GpH7-B3 variant I332_12R/GpL16-k0 (antibody, human IgG1, kappa, He Ab; mutation in the GpH7-B3 chain only; also called He Ab) heavy 1: not shown heavy 2: not shown light: DIVMTQSPLSLPVTPGEPASISCQASESLVHSNRNTYLHWYLQKPGQSPQLLIYKVSNRFSGVPDRFSGSGSGTDFTLKISRVEAEDVGVYYCSQNTHVPPTFGQGTKVEIERTVAAPSVFIFPPSDEQLKSGTASVVCLLNNFYPREAKVQWKVDNALQSGNSQESVTEQDSKDSTYSLSSTLTLSKADYEKHKVYACEVTHQGLSSPVTKSFNRGEC"
1.21,109 % of control,90.1 % of control,"GpH7-A5/GpH7-B3 variant I336_01G/GpL16-k0 (antibody, human IgG1, kappa, He Ab; mutation in the GpH7-B3 chain only; also called He Ab) heavy 1: not shown heavy 2: not shown light: DIVMTQSPLSLPVTPGEPASISCQASESLVHSNRNTYLHWYLQKPGQSPQLLIYKVSNRFSGVPDRFSGSGSGTDFTLKISRVEAEDVGVYYCSQNTHVPPTFGQGTKVEIERTVAAPSVFIFPPSDEQLKSGTASVVCLLNNFYPREAKVQWKVDNALQSGNSQESVTEQDSKDSTYSLSSTLTLSKADYEKHKVYACEVTHQGLSSPVTKSFNRGEC"
1.25,106 % of control,84.9 % of control,"GpH7-A5/GpH7-B3 variant I336_02A/GpL16-k0 (antibody, human IgG1, kappa, He Ab; mutation in the GpH7-B3 chain only; also called He Ab) heavy 1: not shown heavy 2: not shown light: DIVMTQSPLSLPVTPGEPASISCQASESLVHSNRNTYLHWYLQKPGQSPQLLIYKVSNRFSGVPDRFSGSGSGTDFTLKISRVEAEDVGVYYCSQNTHVPPTFGQGTKVEIERTVAAPSVFIFPPSDEQLKSGTASVVCLLNNFYPREAKVQWKVDNALQSGNSQESVTEQDSKDSTYSLSSTLTLSKADYEKHKVYACEVTHQGLSSPVTKSFNRGEC"

# From patent US20150344570A1 (published 2015)
